Measured values from patent WO2019077951A1 (dated 2019).

Target: T1, full-length MUC1 (amino acid sequence of SEQ ID NO: 27) (human (human cervical cancer cell line …, UniProt P15941 24-1255, limits assumed))
T1 construct: Full-length protein from cell extract on a Western blot membrane
Assay: Western blotting

T1 sequence (P15941 other isoform, or with tags, fused parts or gaps limits assumed): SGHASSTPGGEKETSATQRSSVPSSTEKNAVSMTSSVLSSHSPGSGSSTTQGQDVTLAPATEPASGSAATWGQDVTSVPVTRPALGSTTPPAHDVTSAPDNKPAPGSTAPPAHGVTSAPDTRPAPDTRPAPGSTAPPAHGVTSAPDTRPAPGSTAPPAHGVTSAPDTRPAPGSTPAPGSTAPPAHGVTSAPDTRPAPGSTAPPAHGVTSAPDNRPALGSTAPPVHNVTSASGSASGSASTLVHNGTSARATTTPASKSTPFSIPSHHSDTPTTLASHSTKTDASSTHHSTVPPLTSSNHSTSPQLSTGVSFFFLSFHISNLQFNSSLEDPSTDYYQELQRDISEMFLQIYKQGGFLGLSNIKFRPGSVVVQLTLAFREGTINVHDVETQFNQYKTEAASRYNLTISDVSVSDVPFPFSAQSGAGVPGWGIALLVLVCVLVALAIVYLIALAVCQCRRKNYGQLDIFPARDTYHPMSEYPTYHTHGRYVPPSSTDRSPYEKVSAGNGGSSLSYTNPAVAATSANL

B1: anti-MUC1 monoclonal antibody (antibody, V domains shown)
VH: EVKLEESGGGLVQPGGSMKLSCVASGFSFSDYWMNWVRQSPDKGLEWISDIRLKSYNYATHYAESVKGRFTISRDDSKSGVYLQMNNLRAEDTGLYYCTFGNSFAYWGQGTLVTVSA
VL: QAVVTQESALTTSPGETVTLTCRSSTGAVTTSNYANWVQEKPDHLFTGLIGGTNNRAPGVPARFSGSLIGDKAALTITGAQTEDEAIYFCALWYSNHWVFGGGTKLTVLG
notes: also called MUC1 antibody
  binding result: binds
